Measured values from patent publication US20120172293A1 (Takeda / Millennium, published 2012).
Non-standard residues stand in square brackets, D forms with d. No end group written: not given here. *: point of attachment. 4‑guanidinomethylbenzoyl = N=C(N)NCc1ccc(C(=O)*)cc1; Tyr(3-F) = N[C@@H](Cc1ccc(O)c(F)c1)C(=O)O; Tyr(2-F) = N[C@@H](Cc1ccc(O)cc1F)C(=O)O; Phe(4-F) = N[C@@H](Cc1ccc(F)cc1)C(=O)O; Cyclohexanecarbonyl = O=C(C1CCCCC1)*; Ala(cPr) = N[C@@H](CC1CC1)C(=O)O; tBuAla = CC(C)(C)C[C@H](N)C(=O)O; 3Pal = N[C@@H](Cc1cccnc1)C(=O)O; 4Pal = N[C@@H](Cc1ccncc1)C(=O)O; Cha = N[C@@H](CC1CCCCC1)C(=O)O; Gly(cPr) = N[C@H](C(=O)O)C1CC1; dCha = N[C@H](CC1CCCCC1)C(=O)O; Isobutyryl = CC(C)C(=O)*; Nle = CCCC[C@H](N)C(=O)O; Abu = CC[C@H](N)C(=O)O; Aib = CC(C)(N)C(=O)O

Legend:
[1] = molecular target: human Y2 receptor (human) (UniProt P49146); test: cell-based or functional assay
Chain of human Y2 receptor (human) (P49146 whole entry): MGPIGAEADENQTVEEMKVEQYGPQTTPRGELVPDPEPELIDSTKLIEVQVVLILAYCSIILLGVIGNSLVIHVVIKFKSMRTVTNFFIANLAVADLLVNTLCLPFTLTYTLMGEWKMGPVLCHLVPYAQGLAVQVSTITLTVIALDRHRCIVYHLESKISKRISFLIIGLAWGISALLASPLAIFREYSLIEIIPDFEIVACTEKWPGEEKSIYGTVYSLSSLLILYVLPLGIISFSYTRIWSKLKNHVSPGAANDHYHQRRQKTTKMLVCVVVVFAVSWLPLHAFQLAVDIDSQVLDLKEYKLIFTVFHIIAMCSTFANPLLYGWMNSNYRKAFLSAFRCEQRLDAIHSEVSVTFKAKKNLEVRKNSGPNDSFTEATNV

[2] = molecular target: human Y2 receptor (human) (UniProt P49146); test: RBA: [125I]-PYY displacement, hY2R/CHO membranes

Binder | GBA EC50 Ratio (vs PYY(3-36)), [35S]GTPγS [1] | IC50 Ratio (vs PYY(3-36)) [2]
Ac-[dCha]R[Abu][Cha][Cha]NL[Aib]TRQR[Cha]-NH2 (SMILES CC[C@H](NC(=O)[C@H](CCCNC(=N)N)NC(=O)[C@@H](CC1CCCCC1)NC(C)=O)C(=O)N[C@@H](CC1CCCCC1)C(=O)N[C@@H](CC1CCCCC1)C(=O)N[C@@H](CC(N)=O)C(=O)N[C@@H](CC(C)C)C(=O)NC(C)(C)C(=O)N[C@H](C(=O)N[C@@H](CCCNC(=N)N)C(=O)N[C@@H](CCC(N)=O)C(=O)N[C@@H](CCCNC(=N)N)C(=O)N[C@@H](CC1CCCCC1)C(N)=O)[C@@H](C)O) [Ac-[D-Cha24, Abu26, Cha27,28,36, Aib31]-PYY(24-36)] | 13 | 15
Isobutyryl-R[Abu][Cha][Cha]N[tBuAla][Aib]TRQR[Cha]-NH2 (SMILES CC[C@H](NC(=O)[C@H](CCCNC(=N)N)NC(=O)C(C)C)C(=O)N[C@@H](CC1CCCCC1)C(=O)N[C@@H](CC1CCCCC1)C(=O)N[C@@H](CC(N)=O)C(=O)N[C@@H](CC(C)(C)C)C(=O)NC(C)(C)C(=O)N[C@H](C(=O)N[C@@H](CCCNC(=N)N)C(=O)N[C@@H](CCC(N)=O)C(=O)N[C@@H](CCCNC(=N)N)C(=O)N[C@@H](CC1CCCCC1)C(N)=O)[C@@H](C)O) [Isobutanoyl-[Abu26, Cha27,28,36, Leu(Me)30, Aib31]-PYY(25-36)] | 26 | 51
Isobutyryl-R[Abu][Cha][Cha]N[Ala(cPr)][Aib]TRQR[Cha]-NH2 (SMILES CC[C@H](NC(=O)[C@H](CCCNC(=N)N)NC(=O)C(C)C)C(=O)N[C@@H](CC1CCCCC1)C(=O)N[C@@H](CC1CCCCC1)C(=O)N[C@@H](CC(N)=O)C(=O)N[C@@H](CC1CC1)C(=O)NC(C)(C)C(=O)N[C@H](C(=O)N[C@@H](CCCNC(=N)N)C(=O)N[C@@H](CCC(N)=O)C(=O)N[C@@H](CCCNC(=N)N)C(=O)N[C@@H](CC1CCCCC1)C(N)=O)[C@@H](C)O) [Isobutanoyl-[Abu26, Cha27,28,36, Ala(cPr)30, Aib31]-PYY(25-36)] | 12 | 17
{4‑guanidinomethylbenzoyl}-[Nle]H[Cha][Cha]NR[Cha]TRQR[Cha]-NH2 (SMILES CCCC[C@H](NC(=O)c1ccc(CNC(=N)N)cc1)C(=O)N[C@@H](Cc1c[nH]cn1)C(=O)N[C@@H](CC1CCCCC1)C(=O)N[C@@H](CC1CCCCC1)C(=O)N[C@@H](CC(N)=O)C(=O)N[C@@H](CCCNC(=N)N)C(=O)N[C@@H](CC1CCCCC1)C(=O)N[C@H](C(=O)N[C@@H](CCCNC(=N)N)C(=O)N[C@@H](CCC(N)=O)C(=O)N[C@@H](CCCNC(=N)N)C(=O)N[C@@H](CC1CCCCC1)C(N)=O)[C@@H](C)O) [4-Guanidinomethylbenzoyl-[Nle25, Cha27,28,31,36, Arg30]-PYY(25-36)] | 4.5 | 7.2
Isobutyryl-R[Abu][Cha][Phe(4-F)]NL[Aib]TRQR[Cha]-NH2 (SMILES CC[C@H](NC(=O)[C@H](CCCNC(=N)N)NC(=O)C(C)C)C(=O)N[C@@H](CC1CCCCC1)C(=O)N[C@@H](Cc1ccc(F)cc1)C(=O)N[C@@H](CC(N)=O)C(=O)N[C@@H](CC(C)C)C(=O)NC(C)(C)C(=O)N[C@H](C(=O)N[C@@H](CCCNC(=N)N)C(=O)N[C@@H](CCC(N)=O)C(=O)N[C@@H](CCCNC(=N)N)C(=O)N[C@@H](CC1CCCCC1)C(N)=O)[C@@H](C)O) [Isobutanoyl-[Abu26, Cha27,36, Phe(4F)28, Aib31]-PYY(25-36)] | 20 | 23
Cyclohexanecarbonyl-RH[Cha][Ala(cPr)]NL[Aib]TRQR[Cha]-NH2 (SMILES CC(C)C[C@H](NC(=O)[C@H](CC(N)=O)NC(=O)[C@H](CC1CC1)NC(=O)[C@H](CC1CCCCC1)NC(=O)[C@H](Cc1c[nH]cn1)NC(=O)[C@H](CCCNC(=N)N)NC(=O)C1CCCCC1)C(=O)NC(C)(C)C(=O)N[C@H](C(=O)N[C@@H](CCCNC(=N)N)C(=O)N[C@@H](CCC(N)=O)C(=O)N[C@@H](CCCNC(=N)N)C(=O)N[C@@H](CC1CCCCC1)C(N)=O)[C@@H](C)O) [Cyclohexanecarbonyl-[Cha27,36, Ala(cPr)28, Aib31]-PYY(25-36)] | 23 | 15
Isobutyryl-R[Abu][Cha][Cha]NL[Aib]TRQR[Tyr(2-F)]-NH2 (SMILES CC[C@H](NC(=O)[C@H](CCCNC(=N)N)NC(=O)C(C)C)C(=O)N[C@@H](CC1CCCCC1)C(=O)N[C@@H](CC1CCCCC1)C(=O)N[C@@H](CC(N)=O)C(=O)N[C@@H](CC(C)C)C(=O)NC(C)(C)C(=O)N[C@H](C(=O)N[C@@H](CCCNC(=N)N)C(=O)N[C@@H](CCC(N)=O)C(=O)N[C@@H](CCCNC(=N)N)C(=O)N[C@@H](Cc1ccc(O)cc1F)C(N)=O)[C@@H](C)O) [Isobutanoyl-[Abu26, Cha27,28, Aib31, Tyr(2F)36]-PYY(25-36)] | 11 | 19
Isobutyryl-R[Abu][Cha][Cha]NL[Gly(cPr)]TRQR[Cha]-NH2 (SMILES CC[C@H](NC(=O)[C@H](CCCNC(=N)N)NC(=O)C(C)C)C(=O)N[C@@H](CC1CCCCC1)C(=O)N[C@@H](CC1CCCCC1)C(=O)N[C@@H](CC(N)=O)C(=O)N[C@@H](CC(C)C)C(=O)N[C@H](C(=O)N[C@H](C(=O)N[C@@H](CCCNC(=N)N)C(=O)N[C@@H](CCC(N)=O)C(=O)N[C@@H](CCCNC(=N)N)C(=O)N[C@@H](CC1CCCCC1)C(N)=O)[C@@H](C)O)C1CC1) [Isobutanoyl-[Abu26, Cha27,28,36, Gly(cPr)31]-PYY(25-36)] | 16 | 25
Isobutyryl-R[Abu][Cha][Cha]NS[Aib]TRQR[Cha]-NH2 (SMILES CC[C@H](NC(=O)[C@H](CCCNC(=N)N)NC(=O)C(C)C)C(=O)N[C@@H](CC1CCCCC1)C(=O)N[C@@H](CC1CCCCC1)C(=O)N[C@@H](CC(N)=O)C(=O)N[C@@H](CO)C(=O)NC(C)(C)C(=O)N[C@H](C(=O)N[C@@H](CCCNC(=N)N)C(=O)N[C@@H](CCC(N)=O)C(=O)N[C@@H](CCCNC(=N)N)C(=O)N[C@@H](CC1CCCCC1)C(N)=O)[C@@H](C)O) [Isobutanoyl-[Abu26, Cha27,28,36, Ser30, Aib31]-PYY(25-36)] | 28 | 26
Isobutyryl-R[Abu][Cha][Cha]NL[Aib]TRQR[Tyr(3-F)]-NH2 (SMILES CC[C@H](NC(=O)[C@H](CCCNC(=N)N)NC(=O)C(C)C)C(=O)N[C@@H](CC1CCCCC1)C(=O)N[C@@H](CC1CCCCC1)C(=O)N[C@@H](CC(N)=O)C(=O)N[C@@H](CC(C)C)C(=O)NC(C)(C)C(=O)N[C@H](C(=O)N[C@@H](CCCNC(=N)N)C(=O)N[C@@H](CCC(N)=O)C(=O)N[C@@H](CCCNC(=N)N)C(=O)N[C@@H](Cc1ccc(O)c(F)c1)C(N)=O)[C@@H](C)O) [Isobutanoyl-[Abu26, Cha27,28, Aib31, Tyr(3F)36]-PYY(25-36)] | 20 | 26
[dS]LR[Abu][Cha][Cha]NL[Aib]TRQR[Cha]-NH2 (N-terminus assumed; SMILES CC[C@H](NC(=O)[C@H](CCCNC(=N)N)NC(=O)[C@H](CC(C)C)NC(=O)[C@H](N)CO)C(=O)N[C@@H](CC1CCCCC1)C(=O)N[C@@H](CC1CCCCC1)C(=O)N[C@@H](CC(N)=O)C(=O)N[C@@H](CC(C)C)C(=O)NC(C)(C)C(=O)N[C@H](C(=O)N[C@@H](CCCNC(=N)N)C(=O)N[C@@H](CCC(N)=O)C(=O)N[C@@H](CCCNC(=N)N)C(=O)N[C@@H](CC1CCCCC1)C(N)=O)[C@@H](C)O) [[D-Ser23, Abu26, Cha27,28,36, Aib31]-PYY(23-36)] | 11 | 15
Isobutyryl-R[Abu][Cha][Cha]NL[3Pal]TRQR[Cha]-NH2 (SMILES CC[C@H](NC(=O)[C@H](CCCNC(=N)N)NC(=O)C(C)C)C(=O)N[C@@H](CC1CCCCC1)C(=O)N[C@@H](CC1CCCCC1)C(=O)N[C@@H](CC(N)=O)C(=O)N[C@@H](CC(C)C)C(=O)N[C@@H](Cc1cccnc1)C(=O)N[C@H](C(=O)N[C@@H](CCCNC(=N)N)C(=O)N[C@@H](CCC(N)=O)C(=O)N[C@@H](CCCNC(=N)N)C(=O)N[C@@H](CC1CCCCC1)C(N)=O)[C@@H](C)O) [Isobutanoyl-[Abu26, Cha27,28,36, Pya(3)31]-PYY(25-36)] | 19 | 25
Isobutyryl-R[Abu][Cha][Cha]NQ[Aib]TRQR[Cha]-NH2 (SMILES CC[C@H](NC(=O)[C@H](CCCNC(=N)N)NC(=O)C(C)C)C(=O)N[C@@H](CC1CCCCC1)C(=O)N[C@@H](CC1CCCCC1)C(=O)N[C@@H](CC(N)=O)C(=O)N[C@@H](CCC(N)=O)C(=O)NC(C)(C)C(=O)N[C@H](C(=O)N[C@@H](CCCNC(=N)N)C(=O)N[C@@H](CCC(N)=O)C(=O)N[C@@H](CCCNC(=N)N)C(=O)N[C@@H](CC1CCCCC1)C(N)=O)[C@@H](C)O) [Isobutanoyl-[Abu26, Cha27,28,36, Gln30, Aib31]-PYY(25-36)] | 22 | 19
Cyclohexanecarbonyl-R[Nle][Cha][Cha]NL[Aib]TRQR[Cha]-NH2 (SMILES CCCC[C@H](NC(=O)[C@H](CCCNC(=N)N)NC(=O)C1CCCCC1)C(=O)N[C@@H](CC1CCCCC1)C(=O)N[C@@H](CC1CCCCC1)C(=O)N[C@@H](CC(N)=O)C(=O)N[C@@H](CC(C)C)C(=O)NC(C)(C)C(=O)N[C@H](C(=O)N[C@@H](CCCNC(=N)N)C(=O)N[C@@H](CCC(N)=O)C(=O)N[C@@H](CCCNC(=N)N)C(=O)N[C@@H](CC1CCCCC1)C(N)=O)[C@@H](C)O) [Cyclohexanecarbonyl-[Nle26, Cha27,28,36, Aib31]-PYY(25-36)] | 33 | 50
Isobutyryl-R[Abu][Cha][4Pal]NL[Aib]TRQR[Cha]-NH2 (SMILES CC[C@H](NC(=O)[C@H](CCCNC(=N)N)NC(=O)C(C)C)C(=O)N[C@@H](CC1CCCCC1)C(=O)N[C@@H](Cc1ccncc1)C(=O)N[C@@H](CC(N)=O)C(=O)N[C@@H](CC(C)C)C(=O)NC(C)(C)C(=O)N[C@H](C(=O)N[C@@H](CCCNC(=N)N)C(=O)N[C@@H](CCC(N)=O)C(=O)N[C@@H](CCCNC(=N)N)C(=O)N[C@@H](CC1CCCCC1)C(N)=O)[C@@H](C)O) [Isobutanoyl-[Abu26, Cha27,36, Pya(4)28, Aib31]-PYY(25-36)] | 22 | 26
